This note sets out measurements from US20110177003A1 (CENTRE NATIONAL DE LA RECHERCHE SCIENTIFIQUE, published 2011).

In one data set the target is IFP1.2. As to the kind of experiment: multiple angle light scattering at 785 nm; self-association (homodimer).
Data set [1] concerns the molecule itself. As to the kind of experiment: size exclusion chromatography; self-association (homodimer). A general note: Size exclusion chromatography separates by hydrodynamic size, large species first.

IFP1.2: the apparent molecular weight in the data set with IFP1.2 was found to be 80 kDa.

B1: IFP1.0 (DrCBD, 321 amino acids, with the D207H mutation) (other)
chain: MSRDPLPFFPPLYLGGPEITTENCEREPIHIPGSIQPHGALLTADGHSGEVLQMSLNAATFLGQEPTVLRGQTLAALLPEQWPALQAALPPGCPDALQYRATLDWPAAGHLSLTVHRVGELLILEFEPTEAWDSTGPHALRNAMFALESAPNLRALAEVATQTVRELTGFDRVMLYKFAPDATGEVIAEARREGLHAFLGHRFPASHIPAQARALYTRHLLRLTADTRAAAVPLDPVLNPQTNAPTPLGGAVLRATSPMHMQYLRNMGVGSSLSVSVVVGGQLWGLIACHHQTPYVLPPDLRTTLEYLGRLLSLQVQVKEA
modifications: biliverdin chromophore covalently incorporated (residue not stated)
notes: Engineered bacteriophytochrome fragment, reported as a homodimer; also called DrCBD/D207H; drCBD/D207H
Take B1: in data set [1], the binding result is on record as “binds”.
